The results in this text go back to patent US20240417459A1 (CELLDEX THERAPEUTICS, published 2024).

For this assay, the target named is T1, human ILT4 expressed on HEK293 cells (human, UniProt Q8N423 22-597).
T1 construct: also called LILRB2; LIR2
Kind of assay: bifunctional flow cytometry: bispecific bound to HEK293 cells expressing human ILT4, then human PD-L1-msFc detected with PE anti-mouse IgG Fc. Here is the method: Binding of bispecific constructs to ILT4 and PD-L1 was assessed using HEK293 cells expressing human ILT4. In brief, dilutions of the bispecific constructs were allowed to bind to the ILT4 expressing cell before adding human PD-L1-msFc that was detected with PE labeled goat anti-mouse IgG Fc-specific probe.

T1 sequence (Q8N423 other isoform, or with tags, fused parts or gaps limits assumed): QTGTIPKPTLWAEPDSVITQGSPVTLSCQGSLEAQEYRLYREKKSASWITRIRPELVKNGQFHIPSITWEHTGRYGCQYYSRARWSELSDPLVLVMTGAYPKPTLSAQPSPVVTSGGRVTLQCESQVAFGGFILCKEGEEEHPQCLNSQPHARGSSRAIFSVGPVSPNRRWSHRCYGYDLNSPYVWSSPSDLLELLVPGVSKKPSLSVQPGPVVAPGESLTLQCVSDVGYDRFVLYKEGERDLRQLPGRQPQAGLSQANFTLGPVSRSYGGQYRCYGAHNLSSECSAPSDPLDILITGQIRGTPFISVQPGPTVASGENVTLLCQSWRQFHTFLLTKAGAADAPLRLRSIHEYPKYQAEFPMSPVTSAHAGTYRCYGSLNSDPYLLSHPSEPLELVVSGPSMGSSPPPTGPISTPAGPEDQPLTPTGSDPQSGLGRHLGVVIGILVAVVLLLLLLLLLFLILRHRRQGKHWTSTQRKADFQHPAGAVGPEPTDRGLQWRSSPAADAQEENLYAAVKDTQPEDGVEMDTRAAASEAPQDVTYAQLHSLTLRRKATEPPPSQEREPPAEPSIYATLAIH

B1: 9H9-7B1 HL (bispecific antibody, human IgG1, kappa)
heavy: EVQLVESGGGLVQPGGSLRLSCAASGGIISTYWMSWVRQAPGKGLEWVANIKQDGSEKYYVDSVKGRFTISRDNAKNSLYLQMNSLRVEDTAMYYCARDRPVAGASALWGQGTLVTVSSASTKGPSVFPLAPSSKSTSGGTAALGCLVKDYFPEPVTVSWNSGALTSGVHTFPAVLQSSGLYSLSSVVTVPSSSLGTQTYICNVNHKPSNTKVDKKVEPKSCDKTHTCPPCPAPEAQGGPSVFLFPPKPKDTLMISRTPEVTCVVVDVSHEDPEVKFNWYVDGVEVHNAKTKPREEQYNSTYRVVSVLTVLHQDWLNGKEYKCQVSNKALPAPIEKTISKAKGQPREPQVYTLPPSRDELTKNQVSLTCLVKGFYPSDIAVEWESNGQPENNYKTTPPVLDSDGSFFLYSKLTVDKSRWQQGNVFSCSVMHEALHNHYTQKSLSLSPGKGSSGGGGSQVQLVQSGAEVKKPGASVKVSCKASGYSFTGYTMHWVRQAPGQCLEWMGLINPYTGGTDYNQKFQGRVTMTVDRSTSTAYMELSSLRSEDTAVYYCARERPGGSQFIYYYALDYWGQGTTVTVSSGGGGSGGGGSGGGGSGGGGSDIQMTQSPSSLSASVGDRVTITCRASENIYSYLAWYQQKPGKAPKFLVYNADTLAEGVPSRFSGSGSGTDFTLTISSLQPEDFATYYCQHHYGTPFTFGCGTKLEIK
light: DIQMTQSPSTLSASVGDRVTITCRASQSISGWLAWYQQKPGKAPKLLIYKASSLESGVPSRFSGSGSGTEFTLTISSLQPDDFATYYCQQYYGSSRTFGQGTNVEIKRTVAAPSVFIFPPSDEQLKSGTASVVCLLNNFYPREAKVQWKVDNALQSGNSQESVTEQDSKDSTYSLSSTLTLSKADYEKHKVYACEVTHQGLSSPVTKSFNRGEC
notes: Tetravalent bispecific: anti-PD-L1 9H9 on a mutated human IgG1 (AQQ Fc) with the 7B1 scFv (VH-VL) at the C-terminus of the heavy chain; also called 9H9 AQQ-7B1 H2L1; PD-L1xILT4 bispecific antibody
In the case of B1, the binding result is reported as “binds”.

B2: 9H9-7B1 LH (bispecific antibody, human IgG1, kappa)
heavy: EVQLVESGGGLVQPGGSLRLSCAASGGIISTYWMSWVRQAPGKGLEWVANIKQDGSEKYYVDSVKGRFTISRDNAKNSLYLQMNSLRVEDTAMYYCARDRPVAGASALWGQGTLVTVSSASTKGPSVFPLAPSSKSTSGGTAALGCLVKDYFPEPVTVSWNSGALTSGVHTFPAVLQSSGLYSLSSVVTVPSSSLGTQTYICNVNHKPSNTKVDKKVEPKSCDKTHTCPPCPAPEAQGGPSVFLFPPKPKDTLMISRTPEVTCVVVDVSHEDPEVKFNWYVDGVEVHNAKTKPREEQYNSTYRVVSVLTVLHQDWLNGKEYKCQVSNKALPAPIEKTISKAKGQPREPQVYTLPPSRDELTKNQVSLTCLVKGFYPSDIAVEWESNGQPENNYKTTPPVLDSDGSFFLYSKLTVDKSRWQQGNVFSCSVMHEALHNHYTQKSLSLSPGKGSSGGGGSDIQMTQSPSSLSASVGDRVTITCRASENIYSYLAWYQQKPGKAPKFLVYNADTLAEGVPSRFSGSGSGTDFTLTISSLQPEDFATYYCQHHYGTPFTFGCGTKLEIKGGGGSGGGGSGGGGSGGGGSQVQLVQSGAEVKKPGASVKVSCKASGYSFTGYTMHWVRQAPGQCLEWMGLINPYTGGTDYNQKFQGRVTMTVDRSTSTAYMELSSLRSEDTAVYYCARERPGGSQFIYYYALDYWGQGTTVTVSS
light: DIQMTQSPSTLSASVGDRVTITCRASQSISGWLAWYQQKPGKAPKLLIYKASSLESGVPSRFSGSGSGTEFTLTISSLQPDDFATYYCQQYYGSSRTFGQGTNVEIKRTVAAPSVFIFPPSDEQLKSGTASVVCLLNNFYPREAKVQWKVDNALQSGNSQESVTEQDSKDSTYSLSSTLTLSKADYEKHKVYACEVTHQGLSSPVTKSFNRGEC
notes: Tetravalent bispecific as 9H9-7B1 HL, but with the scFv in the VL-VH orientation; also called 9H9 AQQ-7B1 L1H2; PD-L1xILT4 bispecific antibody
In the case of B2, the binding result was “binds”.
